From patent publication CN114106159A (ANYUAN MEDICINE SCIENCE AND TECH SHANGHAI LIMITED COMPANY, dated 2022)

Legend:
[1] = molecular target: T1, SARS-CoV-2 S1蛋白 (ACRO Biosystems) (SARS-CoV-2, UniProt P0DTC2 16-685); assay: competition ELISA, coated SARS-CoV-2 S1, HRP-hACE2-Fc as competitor
T1 construct: domain: S1

[2] = molecular target: T2, 刺突S蛋白-鼠Fc融合蛋白 (S-mFc) (SARS-CoV-2; mouse, UniProt P0DTC2 14-1213); assay: flow cytometry, blocking of S-mFc binding to 293T-ACE2 cells
T2 construct: domain: S蛋白全长区段

[3] = molecular target: T3, SARS-CoV S1蛋白 (ACRO Biosystems) (SARS-CoV, UniProt P59594 14-667); assay: indirect ELISA, SARS-CoV S1 coated at 0.1 μg/mL
T3 construct: domain: S1

B1: 人源化抗体hS1B-91-3 (humanized antibody) (antibody, V domains shown)
VH: EVQLVQSGAEVKKPGSSVKVSCKASGYSFTDYWLHWVRQAPGQGLEWIGMLDPSDGETRLNQKFKDKATLTVDKSTTTAYMQLSSLRSEDTAVYYCARRHFGYDFDYWGQGTTVTVSS
VL: DIVMTQSPSSLPVTPGQPASISCRSSKSLLHSNGNTYLYWFLQKPGKSPQLLIYRMSNLASGVPDRFSGSGSGTDFTLKISRVEAEDVGVYYCMQHLEYPLTFGGGTKVEIKR
notes: also called 人源化单克隆抗体hS1B-91-3
EC50 [1]: 0.0738 µg/mL | IC50 [2]: 0.00813 µg/mL

B2: 鼠源抗体S1B-91-3 (murine monoclonal antibody against SARS-CoV-2 S1) (antibody, V domains shown)
VH: QVQLQQSGPQLVRPGASVKISCKASGYSFTDYWLHWVKQRPGQGLEWIGMLDPSDGETRLNQKFKDKATLTVDKSSTTAYMQLSSPTSEDSAVYYCARRHFGYDFDYWGQGTTLTVSS
VL: DIVMTQAAPSVPVTPGESVSISCRSSKSLLHSNGNTYLYWFLQRPGQSPQLLIYRMSNLASGVPDRFSGSGSGTAFTLRISRVEAEDVGVYYCMQHLEYPLTFGGGTKLEVK
notes: also called 鼠源单抗S1B-91-3; 鼠抗S1B-91-3
binding result [3]: no binding | IC50 [2]: 0.0137 µg/mL
